# Data from US20210008180A1, “FORMULATIONS CONTAINING MUCIN-AFFECTING PROTEASES” (MUCPHARM PTY LTD, priority 2018, published 2021).
# B1: Papain: plant-derived mucin-affecting protease enzyme extracted from papaya; loaded into DC Beads 300-500 μm (protein, UniProt P00784 134-345, looked up)
# Papain: IPEYVDWRQKGAVTPVKNQGSCGSCWAFSAVVTIEGIIKIRTGNLNEYSEQELLDCDRRSYGCNGGYPWSALQLVAQYGIHYRNTYPYEGVQRYCRSREKGPYAAKTDGVRQVQPYNEGALLYSIANQPVSVVLEAAGKDFQLYRGGIFVGPCGNKVDHAVAAVGYGPNYILIKNSWGTGWGENGYIRIKRGTGNSYGVCGLYTSSFYPVKN
# modifications: loaded into DC Beads
# notes: plant-derived mucin-affecting protease enzyme extracted from papaya; loaded into DC Beads 300-500 μm
# What was measured:
# [1] = Release of Papain from DC Beads (300-500 μm), azo-casein assay; type: physicochemical; details: 80 μL, loaded from 200 μL 5 mg/mL Papain, 6 hrs, 5 mL PBS pH 6.5
# Protocol: 80 μL of DC Beads® (300-500 μm) were taken in a 1.5 mL centrifuge tube and washed twice with distilled water. 200 μL of a 5 mg/mL Papain solution was added and the mixture incubated at room temperature for 6 hrs with gentle agitation. The beads were then washed twice with distilled water and suspended in 5 mL PBS pH 6.5. The first sample of 250 μL was taken at 30 min, and thereafter samples were taken every hour for the next 16 hrs, with 250 μL PBS being replaced each time. The Papain concentration in the samples was measured by azo-casein assay and the cumulative release of Papain from the DC Beads as a function of time is set out in Graph shown below.
# HT29 cells = experiment: Efficacy of Papain released from DC Beads in Transwell chamber; type: cell-based, human; details: 5 mg/ml Papain (500 μg/80 μl beads) loaded beads in Transwell chamber; after 3 hours
# Protocol: Subsequently, experiments were conducted to determine the efficacy of the Papain released from the beads. In these experiments, HT29 cells (human colorectal cancer cell line) were seeded in 24 well plates. After 24 h, the plates were treated with 5 mg/ml Papain (500 μg/80 μl beads) loaded beads in a Transwell chamber. After every 3 h, the Transwell chamber containing beads was transferred to a fresh well. This process was continued up to 3 days.
molecule,measurement,setting,value
B1,duration of sustained release of Papain,[1],greater than 16 hours
same,effect of Papain released from the DC Beads on cells,HT29 cells,death of all cells
